# According to patent publication US20250304677A1 (VIB VZW, published 2025):
# B1: VHH 3HFO28 (family 7) (VHH)
# VHH: QVQLQESGGGLVQPGGSLRLSCAASGSTLDRYEIGWFRQAPGKGRERVSCISTTSSTYEDSVKGRFTISRDNAKNTVYLQMNSLKPEDTAVYYCATVRVAWSTCFPTGDSWGKGTQVTVSS
# B2: 2HFO42-NT (2HFO42 fused to neurotensin) (VHH)
# VHH: QVQLQESGGGLVQAGGSLRLSCAASGSGFSGMIMGWYRQVPGKQRELVATVTSHGTTNYADSVKGRFTISRDNAKNTVLLQMNSLKPEDTAVYYCNAHFPGIYWGKGTQVTVSS
# Tests used:
# [1] = biological target: T1, mouse folate receptor alpha (mFRα), recombinant protein (mouse, UniProt P35846 25-232); experiment: ELISA, periplasmic extract
# T1 construct: Bought recombinant proteins (e.g. biotinylated, Acro Biosystems FO1-M82E9); also called mFOLR1; Ms FOLR1
# Source text: (§1) From the lymphocytes of each llama a separate VHH library was constructed to select and screen for the presence of antigen-specific VHHs. To this end, total RNA from peripheral blood lymphocytes was used as template for first strand cDNA synthesis with an oligo ^{∘}dT) primer. Using this cDNA, the VHH encoding sequences were amplified by PCR, digested with PstI and NotI, cloned into the PstI and NotI sites of the phagemid vector pMECS and transformed into E. coli to generate VHH libraries. To enrich these libraries for FRα ^{∘}or FOLR1, as used interchangeably herein)-specific VHHs, a combinatorial panning approach on recombinant human and mouse FOLR1 was used followed by random selection and screening of clones by ELISA for the presence of antigen-specific VHHs in their periplasmic extracts ^{∘}PEs). In order to gauge the cross-reactivity for human and mouse FOLR1, each clone was tested on both antigens.
# (§2) After panning of core76/77 on human and mouse folate receptor alpha ^{∘}FRα), […] were randomly selected from the second and third rounds and analyzed by ELISA on both human and mouse FRα for the presence of FRα-specific VHHs in their periplasmic extracts ^{∘}PE). This led to the identification of 98 hits. For these 98 hits, the off-rate ^{∘}koff) in the PE was determined by biolayer interferometry ^{∘}BLI) on both mouse and human FRα that was directly immobilized onto AR2G biosensors. The off-rates were calculated using a 1:1 binding model. […] Abbreviations: SE: standard error.
# [2] = biological target: T1, mouse folate receptor alpha (mFRα), …; experiment: BLI, FRα on AR2G biosensors, 1:1 model
# Procedure: As a next step, the kinetic binding constants were determined using BLI ^{∘}Table 3). […] Similar to the ELISA results ^{∘}FIG. 1A-B), higher binding affinities were measured for mouse FRα than human FRα, with KD values […] one order of magnitude in most cases. […] For 3HFO28, binding to human FRα could not be confirmed by BLI, and this VHH was excluded from further characterization.
# The kinetic parameters were calculated using a 1:1 binding model.
# [3] = biological target: T2, human folate receptor beta (FRβ) (human, UniProt P14207 17-230, limits assumed); experiment: method not named (follows the ELISA of Example 3)
# T2 construct: also called hFOLR2; human FOLR2
# [4] = biological target: T1, mouse folate receptor alpha (mFRα), …; experiment: BLI, periplasmic extract, FRα on AR2G biosensors
# Procedure: as §2
# [5] = biological target: T1, mouse folate receptor alpha (mFRα), …; experiment: ELISA on recombinant mouse FOLR1, cMyc tag detection, normalised binding, non-linear fit
# Procedure: (§3) Data were normalized and technical replicates were plotted as mean±SD. Data were fitted by non-linear regression and the half-maximal effective concentration ^{∘}EC50) was calculated using GraphPad Prism 9 software. ^{∘}FIG. 1C and FIG. 1D) Binding affinity determination of anti-FOLR1 VHHs for native FOLR1. Mouse ^{∘}FIG. 1C) or human FOLR1 FIG. 1D) was overexpressed on HEK293T cells and binding of the anti-FOLR1 VHHs was assessed using flow cytometry. The mean fluorescence intensity ^{∘}MFI) of the phycoerythrin signal was plotted for each VHH concentration. Data were fitted by non-linear regression using GraphPad Prism 9 software. ^{∘}FIG. 1E) Determination of the competition of representative family members with folic acid ^{∘}FA) using ELISA. Mouse FOLR1 was coated on the plate and was pre-incubated with or without 100 μM FA before adding the VHHs. Data were fitted by non-linear regression using GraphPad Prism 9 software.
# (§4) In a first step, binding affinity and cross-reactivity of the purified VHHs to human and mouse FRα was assessed by ELISA, using detection of the cMyc tag ^{∘}FIG. 1A-B). […] 2HFO19 ^{∘}family 1) was the best binder of all tested VHHs to both mouse and human FRα with an EC₅₀ of 0.1 nM and 0.4 nM respectively ^{∘}FIG. 1A-B).
# [6] = biological target: T3, human folate receptor alpha (hFRα), recombinant protein (human, UniProt P15328 25-233); experiment: ELISA on recombinant human FOLR1, cMyc tag detection, normalised binding, non-linear fit
# T3 construct: Bought recombinant proteins (His-tagged, or biotinylated via Avi-tag, e.g. AcroBiosystems FO1-H82E2, F01-H52H1); also called hFOLR1; huFOLR1
# Procedure: as §3, §4
# [7] = biological target: T3, human folate receptor alpha (hFRα), …; experiment: BLI, periplasmic extract, FRα on AR2G biosensors; unpurified periplasmic extract, BLI off-rate screen
# Procedure: as §2
# [8] = biological target: T3, human folate receptor alpha (hFRα), …; experiment: ELISA, periplasmic extract; unpurified periplasmic extract, PE-ELISA (ratio of coated to uncoated well)
# Source text: as §1, with “In order to gauge the cross-reactivity for human and mouse FOLR1, each clone was tested on both antigens.” left out
# After panning of core76/77 on human and mouse folate receptor alpha ^{∘}FRα), 95 colonies were randomly selected from the second and third rounds and analyzed by ELISA on both human and mouse FRα for the presence of FRα-specific VHHs in their periplasmic extracts ^{∘}PE). […] For these 98 hits, the off-rate ^{∘}koff) in the PE was determined by biolayer interferometry ^{∘}BLI) on both mouse and human FRα that was directly immobilized onto AR2G biosensors. The off-rates were calculated using a 1:1 binding model. […]
# [9] = biological target: T3, human folate receptor alpha (hFRα), …; experiment: BLI, biotinylated FOLR1 on streptavidin biosensors
# Procedure: (§5) The off-rates of the 2HFO9 ^{∘}FIG. 5A) and 2MFR67 ^{∘}FIG. 5B) mutants and the three wild-type ^{∘}WT) VHHs from family 3 were determined by biolayer interferometry ^{∘}BLI) on both mouse and human biotinylated folate receptor alpha ^{∘}FOLR1) that was immobilized on streptavidin biosensors. The off-rates were calculated using a 1:1 binding model. The fold change compared to the off-rates of the corresponding WT VHH is represented as the WT VHH off-rate divided by the off-rate of the mutant for the VHHs that show an improved off-rate compared to the WT. For the VHHs that show a worse off-rate compared to the WT, the fold change is represented as the negative value of the mutant VHH off-rate divided by the WT off-rate. The red bars represent the WT 2HFO9 and 2MFR67 in the upper and lower panel respectively.
# [10] = biological target: T1, mouse folate receptor alpha (mFRα), …; experiment: BLI, biotinylated FOLR1 on streptavidin biosensors
# Procedure: as §5
# [11] = biological target: T1, mouse folate receptor alpha (mFRα), …; experiment: method of this value not stated (ELISA, BLI and FACS named)
# T1 sequence (P35846 25-232 limits assumed): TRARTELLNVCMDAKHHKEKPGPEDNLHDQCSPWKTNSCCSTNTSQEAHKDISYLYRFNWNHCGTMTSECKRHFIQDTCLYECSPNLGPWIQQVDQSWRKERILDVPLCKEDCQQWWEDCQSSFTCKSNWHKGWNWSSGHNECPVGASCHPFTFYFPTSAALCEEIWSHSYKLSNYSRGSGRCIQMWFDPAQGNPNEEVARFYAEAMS
# T3 sequence (P15328 25-233 limits assumed): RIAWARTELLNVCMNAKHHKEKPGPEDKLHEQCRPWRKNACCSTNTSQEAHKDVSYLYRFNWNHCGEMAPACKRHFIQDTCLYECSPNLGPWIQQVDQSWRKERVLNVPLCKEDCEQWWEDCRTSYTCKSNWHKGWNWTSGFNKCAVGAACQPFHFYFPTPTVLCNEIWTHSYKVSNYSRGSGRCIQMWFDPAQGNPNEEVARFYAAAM
# T2 sequence (P14207 17-230 limits assumed): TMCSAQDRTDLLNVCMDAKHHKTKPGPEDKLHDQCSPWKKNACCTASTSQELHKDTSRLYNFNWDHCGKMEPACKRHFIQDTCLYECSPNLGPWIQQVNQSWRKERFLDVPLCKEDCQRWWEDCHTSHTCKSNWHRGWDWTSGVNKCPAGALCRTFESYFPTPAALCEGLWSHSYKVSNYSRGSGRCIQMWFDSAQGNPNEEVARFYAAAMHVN
Binder,PE-ELISA (ratio to uncoated well) [1],Kd [2] [nM],koff [2] [s⁻¹],kon [2] [M⁻¹ s⁻¹],binding result [3],koff [4] [s⁻¹],EC50 [5] [nM],EC50 [6] [nM],koff [7] [s⁻¹],PE-ELISA (ratio to uncoated well) [8],Fold hu/ms (koff) [9],koff [9] [s⁻¹],Fold to 2HF042 (koff) [10],koff [10] [s⁻¹],Kd [11] [nM]
B1,34.9,12.6,0.00582,464000,no binding,0.00425,84.3,1.5,0.00827,35.6,,,,,
B2,,,,,,,,,,,7,0.0154,1,0.00222,23.3
